Stoichiometry N data for one substance are collected here from paper PMC10355822.

For orientation: stoichiometry N means the number of molecules, sites or subunits per partner or assembly.

“And” between values parts separate entries of the source, which are not always exact repeats. Identical values can stand only once.

Assay [1] deals with M. polysiphoniae SPARTA (MapSPARTA) complex of MapAgo and MapTIR-APAZ (Maribacter polysiphoniae). Nature of the assay: cryo-EM structure.
The target is the same in assay [2]. Nature of the assay: mass photometry.
The target is the same in assay [3]. The experiment in a line: cryo-EM structure. The source holds these as a separate data set.

On to “M. polysiphoniae SPARTA (MapSPARTA) complex of MapAgo and MapTIR-APAZ”, for which the stoichiometry N in assay [1] is 4; in assay [2], 2 and 4; in assay [3] it was 2.
